Results published in patent publication US20260243766A1 (CHILDREN S HOSPITAL OF PHILADELPHIA, published 2026).

Biological target: T1, A*23:01/PHOX2B (human, UniProt P61769 21-119, limits assumed)
T1 construct: The preparation of this complex is not described; also called HLA-A*23:01/PHOX2B complex
Assay: SPR

T1 sequence (P61769 21-119 limits assumed, chain 3 of 2, other chains not shown): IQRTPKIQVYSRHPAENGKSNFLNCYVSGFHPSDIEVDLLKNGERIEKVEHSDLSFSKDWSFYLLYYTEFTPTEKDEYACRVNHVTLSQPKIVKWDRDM

B1: 10LH single-chain antibody fragment (Clone 10 (RU141-10) scFv) (scFv)
scFv: SRNGGDGQSVLTQPPSVSVSPGQTASITCSGDSLGNKYACWYQQKPGQSPVLVIYQDSKRPSGIPERFSGSNSGNTATLTISGTQAMDEADYYCQAWDSSRGYTVVFGTGTKVTVSSQTGGSGGGGSGGGGSGGGGSEVQLLESGGGLVQPGGSLRLSCAASGFTFDSYAMSWVRQAPGKGLEWVSAISGYGGSTYYADSVKGRFTISRDNSKNTLYLQMNSLRAEDTAVYYCAKYTYFLDAFDIWGQGTMVTVSSS
notes: also called Clone 10LH; scFV 10LH
- Kd: ~20 µM
